{"source": "paper PMC10512945", "biological_target": "N-terminally GST-tagged human GBF1 (containing the Y828A mutation that confers BFA resistance) (human)", "test": "negative staining electron microscopy; purified GST-GBF1 on glow-discharged carbon grids, washed with 20 mM Bis-Tris pH 7.0, 50 mM NaCl, 1 mM DTT, stained with 1% uranyl formate; 2D class averages from 81,522 particles, compared with AlphaFold-predicted monomers"}
{"substance": "N-terminally GST-tagged human GBF1 (containing the Y828A mutation that confers BFA resistance) (natural protein)", "values": [{"measurement": "stoichiometry N", "result": 2}]}
